In the assay the target is human α3β2 nicotinic acetylcholine receptor (human) (UniProt P32297).
Chain of UniProt P32297 (P32297 32-505, chain 1 of 2): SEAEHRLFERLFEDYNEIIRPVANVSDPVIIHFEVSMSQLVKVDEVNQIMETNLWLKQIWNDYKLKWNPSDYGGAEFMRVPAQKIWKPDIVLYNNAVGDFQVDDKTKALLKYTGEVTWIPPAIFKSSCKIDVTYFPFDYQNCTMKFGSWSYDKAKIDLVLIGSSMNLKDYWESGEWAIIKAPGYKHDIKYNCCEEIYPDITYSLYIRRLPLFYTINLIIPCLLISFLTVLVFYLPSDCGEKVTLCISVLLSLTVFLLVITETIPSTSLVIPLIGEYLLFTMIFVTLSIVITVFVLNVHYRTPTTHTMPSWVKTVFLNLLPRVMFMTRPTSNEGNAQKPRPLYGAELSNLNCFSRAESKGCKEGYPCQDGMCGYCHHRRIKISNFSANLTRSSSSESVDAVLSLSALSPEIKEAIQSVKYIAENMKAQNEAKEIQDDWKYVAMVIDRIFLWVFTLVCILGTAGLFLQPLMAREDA
Chain of UniProt P32297 (P17787 26-502, chain 2 of 2, further chain): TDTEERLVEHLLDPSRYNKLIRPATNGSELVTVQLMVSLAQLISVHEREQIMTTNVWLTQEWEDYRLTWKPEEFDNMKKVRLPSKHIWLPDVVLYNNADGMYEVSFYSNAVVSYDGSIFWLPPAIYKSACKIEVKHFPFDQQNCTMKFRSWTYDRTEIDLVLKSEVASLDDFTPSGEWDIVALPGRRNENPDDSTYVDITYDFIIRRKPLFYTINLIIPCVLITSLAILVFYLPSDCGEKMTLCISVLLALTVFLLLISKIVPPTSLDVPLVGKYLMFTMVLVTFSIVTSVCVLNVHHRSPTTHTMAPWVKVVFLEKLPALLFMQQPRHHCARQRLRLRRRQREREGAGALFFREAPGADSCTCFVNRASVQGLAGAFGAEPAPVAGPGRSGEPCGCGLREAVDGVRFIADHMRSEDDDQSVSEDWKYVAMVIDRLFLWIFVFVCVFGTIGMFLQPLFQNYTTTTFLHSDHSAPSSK

On to drysdalin (natural protein), for which the inhibition of ACh‐evoked peak current at 30 nmol/L drysdalin, Xenopus oocytes stood at 13%.

(Values after paper PMC6996315.)
